Tests used:
[1] = test system: noise-induced hearing loss mouse model; assay: Dosage effect in noise-induced hearing loss mouse model (ABR threshold); format: in vivo
Experimental: FIGS. 15A, 15B, 15C, 15D, and 15E show the dose-dependent effects of FAM19A5 antagonist administration on ABR threshold in a noise-induced hearing loss mouse model. FIG. 15A provides a schematic of the experimental design. As shown, one day after noise exposure, the animals received varying concentrations of the anti-FAM19A5 antibody (1-30) (i.e., 0 mg/kg, 3 mg/kg, 7 mg/kg, 15 mg/kg, and 30 mg/kg). After noise exposure, control animals received a human anti-IgG antibody (30 mg/kg). ABR threshold was measured at one day after noise exposure and at two weeks after noise exposure. FIG. 15B provides a comparison of ABR threshold for the different treatment groups across a frequency of 0 kHz to 64 kHz at one day after noise exposure. FIG. 15C provides the same data shown in FIG. 15B except as bar graphs. FIG. 15D provides a comparison of ABR threshold for the different treatment groups across a frequency of 0 kHz to 64 kHz at two weeks after noise exposure. FIG. 15E provides the same data shown in […] except as bar graphs. In each of FIGS. 15B-15E, ABR threshold prior to noise exposure is also shown (“BN”). In both FIGS. 15C and 15E, for each of the frequency groups shown, the first bar (from the left) corresponds to pre-noise exposure (“BN”), the second bar corresponds to animal streated with the control anti-IgG antibody (“hIgG”), the third bar corresponds to animals treated with 0 mg/kg of the anti-FAM19A5 antibody, the fourth bar corresponds to animals treated with 3 mg/kg of the anti-FAM19A5 antibody, the fifth bar corresponds to animals treated with 7 mg/kg of the anti-FAM19A5 antibody, the sixth bar corresponds to animals treated with 15 mg/kg of the anti-FAM19A5 antibody, and the last bar corresponds to animals treated with 30 mg/kg of the anti-FAM19A5 antibody.
To assess whether the above-described therapeutic effects of FAM19A5 antagonists on hearing loss is dose dependent, the noise-induced hearing loss mouse model described in Example 3 was used. […] ABR threshold was measured prior to noise exposure, one day after noise exposure, and two weeks after noise exposure.

[2] = test system: inner hair cells of mouse cochlear explant; assay: Reversal of FAM19A5-induced inhibition of synaptogenesis (CtBP2 puncta); format: cell-based; details: 1 μM FAM19A5 protein plus anti-FAM19A5 antibody, treated 1 DIV, stained 2 DIV
Experimental: Cochlear explant were cultured in medium consisting of plating media, which consist of Neurobasal media (Invitrogen), 1% N2 supplement, and 10 μg/mL Ampicillin with culture media with additional 1% FBS.
Postnatal day 4-5 (P4-5) C57BL/6 mice were sacrificed for inner ear dissection. Mouse head was bisected, and brain tissue was removed. Cochlea was carefully separated the from the extraneous bones in ice-cold HBSS (5 mM HEPES/1.3 mM CaCl2), 0.9 mM MgCl2, pH 7.4) or External solution (1.2 mM CaCl2), 1 mM MgCl2, 5 mM HEPES in HBSS). Then the stria vascularis and spiral bone plate was removed, and cochlea was cut into two to three sections. […]
Mouse cochlear explant cultures were treated with FAM19A5, FAM19A5 combined with a FAM19A5 antagonist (e.g., described herein, e.g., 1-30 antibody), or a FAM19A5 antagonist (e.g., described herein, e.g., 1-30 antibody) alone at 1 DIV to determine the level of synaptogenesis at 2 DIV by immunostaining CtBP2, a ribbon synapse marker. To quantify the number of CtBP2 puncta of individual inner hair cells, z-stack confocal images were exported in “multi-page” and the number of CtBP2 puncta from each individual inner hair cells were measured using ROI manger and multi-point tool from Fiji (Image J). Number of CtBP2 puncta from five individual inner hair cells were counted per image and 3 z-stack images were measured from each treatment group. […]

B1: 1-30: anti-FAM19A5 antibody, de-immunized variant of 3-2; VH SEQ ID NO: 235, VL SEQ ID NO: 240 (antibody, V domains shown)
VH: AVTLDESGGGLQTPGGALRLSCKASGFDFESFNMFWVRQAPGKGLEYVSQISSSEEDENYAPAVKGRATISRDNGQSTLYLQMNSLRAEDTGTYYCAKSSYDCPYGHCSSGVDSAGEIDAWGHGTEVIVSS
VL: ALTQPSSVSANPGETVKITCSGGGSEEEQYYYGWYQQKPGSAPVTLIYQDEERPSDIPSRFSGSTSGSTATLTITGVQAGDEADYYCGSWDSEDEDHFGAGTTLTVL
modifications: Low-PI VH, 1-30 VH, 1-17 VH, 1-32 VH, 4-11 VH, 6-10 VH; 1-30 VL
effect on ABR threshold by dose ([1]; one day post noise exposure, 15 mg/kg and 30 mg/kg): greatest effects
ABR threshold across frequencies ([1]; one day post noise exposure, 1, 3, 7, 15, 30 mg/kg i.v.): dose-dependent reduction
ABR threshold ([1]; two weeks post noise exposure, doses of 7, 15 or 30 mg/kg, many of the frequencies): significant reduction
number of CtBP2 puncta in inner hair cells [2]: increased (as compared to the FAM19A5 protein alone group) and comparable to that of the control group
